According to US20230167164A1 (IMMUNOWAKE, published 2023):
Where a chain is given by its changes, count along the chain named. Numbers in names are those of the source. One block for each binder: values may come before it.

Legend:
mouse PD-1 [1] = target: T1, mouse PD-1 (mouse, UniProt Q02242 25-167, limits assumed); test: Kd column of Table 22; same value as PD-L2(WT)-Fc in Table 21
T1 construct: also called mPD-1
T1 sequence (looked up): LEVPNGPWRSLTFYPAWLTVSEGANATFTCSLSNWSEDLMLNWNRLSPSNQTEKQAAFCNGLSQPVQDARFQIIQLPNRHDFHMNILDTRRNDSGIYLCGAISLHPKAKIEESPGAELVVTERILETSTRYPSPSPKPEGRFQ

mouse PD-1 [2] = target: T1, mouse PD-1; test: affinity in PD-L1-Fc format; N/A indicates non-detectable PD-1 binding
human PD-1 [3] = target: T2, human PD-1 (human, UniProt Q15116 25-167, limits assumed); test: as above
T2 construct: nivolumab is called an anti-human PD-1 antibody; also called hPD-1

mouse PD-1 [4] = target: T1, mouse PD-1; test: method not named
human PD-1 [5] = target: T2, human PD-1; test: method not named
mouse PD-1 [6] = target: T1, mouse PD-1; test: Kd column of Table 22; same value as PD-L2(mut2)-Fc in Table 21

T2 sequence (Q15116 25-167 limits assumed): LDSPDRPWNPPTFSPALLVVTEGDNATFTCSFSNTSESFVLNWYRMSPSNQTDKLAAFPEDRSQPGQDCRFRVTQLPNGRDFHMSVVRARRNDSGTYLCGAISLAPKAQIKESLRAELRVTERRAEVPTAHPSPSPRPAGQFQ

Kd (mouse PD-1 [1]): 980 nM
B1: IL-12(E59A/F60A)/PD-L2(WT)-Fc (Fc fusion)
chain 1: LFTVTVPKELYIIEHGSNVTLECNFDTGSHVNLGAITASLQKVENDTSPHRERATLLEEQLPLGKASFHIPQVQVRDEGQYQCIIIYGVAWDYKYLTLKVKASYRKINTHILKVPETDEVELTCQATGYPLAEVSWPNVSVPANTSHSRTPEGLYQVTSVLRLKPPPGRNFSCVFWNTHVRELTLASIDLQSQMEPRTHPTGSGIWELKKDVYVVELDWYPDAPGEMVVLTCDTPEEDGITWTLDQSSEVLGSGKTLTIQVKAAGDAGQYTCHKGGEVLSHSLLLLHKKEDGIWSTDILKDQKEPKNKTFLRCEAKNYSGRFTCWWLTTISTDLTFSVKSSRGSSDPQGVTCGAATLSAERVRGDNKEYEYSVECQEDSACPAAEESLPIEVMVDAVHKLKYENYTSSFFIRDIIKPDPPKNLQLKPLKNSRQVEVSWEYPDTWSTPHSYFSLTFCVQVQGKSKREKKDRVFTDKTSATVICRKNASISVRAQDRYYSSSWSEWASVPCSGGGGSGGGGSGGGGSGGGGSGRNLPVATPDPGMFPCLHHSQNLLRAVSNMLQKARQTLEFYPCTSEEIDHEDITKDKTSTVEACLPLELTKNESCLNSRETSFITNGSCLASRKTSFMMALCLSSIYEDLKMYQVEFKTMNAKLLMDPKRQIFLDQNMLAVIDELMQALNFNSETVPQKSSLEEPDFYKTKIKLCILLHAFRIRAVTIDRVMSYLNASDKTHTCPPCPAPEDEGGPSVFLFPPKPKDTLMISRTPEVTCVVVDVSHEDPEVKFNWYVDGVEVHNAKTKPREEQYNSTYRVVSVLTVLHQDWLNGKEYKCKVSNKALPAPIEKTISKAKGQPREPQVYVYPPSREEMTKNQVSLTCLVKGFYPSDIAVEWESNGQPENNYKTTPPVLDEDGSFALVSKLTVDKSRWQQGNVFSCSVMHEALHNHYTQKSLSLSPGK
chain 2: LFTVTVPKELYIIEHGSNVTLECNFDTGSHVNLGAITASLQKVENDTSPHRERATLLEEQLPLGKASFHIPQVQVRDEGQYQCIIIYGVAWDYKYLTLKVKASYRKINTHILKVPETDEVELTCQATGYPLAEVSWPNVSVPANTSHSRTPEGLYQVTSVLRLKPPPGRNFSCVFWNTHVRELTLASIDLQSQMEPRTHPTGSGDKTHTCPPCPAPEKKGGPSVFLFPPKPKDTLMISRTPEVTCVVVDVSHEDPEVKFNWYVDGVEVHNAKTKPREEQYNSTYRVVSVLTVLHQDWLNGKEYKCKVSNKALPAPIEKTISKAKGQPREPQVYVLPPSREEMTKNQVSLLCLVKGFYPSDIAVEWESNGQPENRYMTWPPVLDSDGSFFLYSKLTVDKSRWQQGNVFSCSVMHEALHNHYTQKSLSLSPGK
notes: also called IL-12(E59A/F60A)/PD-L2-Fc immunocytokine; construct #29

binding result (mouse PD-1 [2]): no binding
binding result (human PD-1 [3]): no binding
B2: PD-L1(mut1)-Fc (Fc fusion)
chain 1: FTVTVPKDLYVVEYGSNMTIECKFPVEKQLDLAALIVYWMMEDKNIIQFVHGEEDLKVQHSSYRQRARLLKDQLSLGNAALQITDVKLQDAGVYTCLIAYKGADYKRITVKVNAPYNKINQRILVVDPVTSEHELTCQAEGYPKAEVIWTSSDHQVLSGKTTTTNSKREEKLFNVTSTLRINTTTNEIFYCTFRRLDPEENHTAELVIPELPLAHPPNERDKTHTCPPCPAPEDEGGPSVFLFPPKPKDTLMISRTPEVTCVVVDVSHEDPEVKFNWYVDGVEVHNAKTKPREEQYNSTYRVVSVLTVLHQDWLNGKEYKCKVSNKALPAPIEKTISKAKGQPREPQVYVYPPSREEMTKNQVSLTCLVKGFYPSDIAVEWESNGQPENNYKTTPPVLDEDGSFALVSKLTVDKSRWQQGNVFSCSVMHEALHNHYTQKSLSLSPGK
chain 2: B2 chain 1 with D234K, E235K, Y351L, T366L, N390R, K392M, T394W, E400S, A405F, V407Y
notes: also called E58M/R113T/M115L/S117A/G119K

Kd (mouse PD-1 [4]): ~100 nM
Kd (human PD-1 [5]): ~100 nM
Kd (mouse PD-1 [6]): 230 nM
B3: IL-12(E59A/F60A)/PD-L2(mut2)-Fc (Fc fusion)
chain 1: LFTVTVPKELYIIEHGSNVTLECNFDTGSHVNLGAITAVLQKVENDTSPHRERATLLEEQLPLGKASFHIPQVQVRDEGQYQCIIIYGVAWDYKYLTLKVKASYRKINTHILKVPETDEVELTCQATGYPLAEVSWPNVSVPANTSHSRTPEGLYQVTSVLRLKPPPGRNFSCVFWNTHVRELTLASIDLQSQMEPRTHPTGGGGSGGGIWELKKDVYVVELDWYPDAPGEMVVLTCDTPEEDGITWTLDQSSEVLGSGKTLTIQVKAAGDAGQYTCHKGGEVLSHSLLLLHKKEDGIWSTDILKDQKEPKNKTFLRCEAKNYSGRFTCWWLTTISTDLTFSVKSSRGSSDPQGVTCGAATLSAERVRGDNKEYEYSVECQEDSACPAAEESLPIEVMVDAVHKLKYENYTSSFFIRDIIKPDPPKNLQLKPLKNSRQVEVSWEYPDTWSTPHSYFSLTFCVQVQGKSKREKKDRVFTDKTSATVICRKNASISVRAQDRYYSSSWSEWASVPCSGGGGSGGGSGGGGSRNLPVATPDPGMFPCLHHSQNLLRAVSNMLQKARQTLEFYPCTSEEIDHEDITKDKTSTVEACLPLELTKNESCLNSRETSFITNGSCLASRKTSFMMALCLSSIYEDLKMYQVEFKTMNAKLLMDPKRQIFLDQNMLAVIDELMQALNFNSETVPQKSSLEEPDFYKTKIKLCILLHAFRIRAVTIDRVMSYLNASGGGGSGGGDKTHTCPPCPAPEDEGGPSVFLFPPKPKDTLMISRTPEVTCVVVDVSHEDPEVKFNWYVDGVEVHNAKTKPREEQYNSTYRVVSVLTVLHQDWLNGKEYKCKVSNKALPAPIEKTISKAKGQPREPQVYVYPPSREEMTKNQVSLTCLVKGFYPSDIAVEWESNGQPENNYKTTPPVLDEDGSFALVSKLTVDKSRWQQGNVFSCSVMHEALHNHYTQKSLSLSPGK
chain 2: LFTVTVPKELYIIEHGSNVTLECNFDTGSHVNLGAITAVLQKVENDTSPHRERATLLEEQLPLGKASFHIPQVQVRDEGQYQCIIIYGVAWDYKYLTLKVKASYRKINTHILKVPETDEVELTCQATGYPLAEVSWPNVSVPANTSHSRTPEGLYQVTSVLRLKPPPGRNFSCVFWNTHVRELTLASIDLQSQMEPRTHPTGGGGSGGGDKTHTCPPCPAPEKKGGPSVFLFPPKPKDTLMISRTPEVTCVVVDVSHEDPEVKFNWYVDGVEVHNAKTKPREEQYNSTYRVVSVLTVLHQDWLNGKEYKCKVSNKALPAPIEKTISKAKGQPREPQVYVLPPSREEMTKNQVSLLCLVKGFYPSDIAVEWESNGQPENRYMTWPPVLDSDGSFFLYSKLTVDKSRWQQGNVFSCSVMHEALHNHYTQKSLSLSPGK
notes: also called IL-12(E59A/F60A)/PD-L2(S58V)-Fc
